Test results published in patent publication US20160122421A1.

Columns and labels:
[1] = biological target: humanized variant of IPN002 (hu-IPN002); assay: competition ELISA; competitor: biotin-Tau 15-44 on hu-IPN002
[2] = biological target: 383 amino acid recombinant tau (UniProt P10636); assay: ELISA binding assay, A450
[3] = biological target: 383 amino acid recombinant tau (UniProt P10636); assay: ELISA, solid phase, biotin-rTau383
[4] = biological target: 383 amino acid recombinant tau (UniProt P10636); assay: ELISA, solution phase, biotin-rTau383
[5] = biological target: 383 amino acid recombinant tau (UniProt P10636); assay: solid phase ELISA, biotin-rTau383, A450
[6] = biological target: 383 amino acid recombinant tau (UniProt P10636); assay: solution phase ELISA, biotin-rTau383, A450
[7] = biological target: 383 amino acid recombinant tau (UniProt P10636); assay: peptide binding ELISA (A450), hu-IPN002 titrated
[8] = biological target: 383 amino acid recombinant tau (UniProt P10636); assay: ELISA, serially diluted hu-IPN002 with biotin-rTau383
biotin-Tau 15-24 = assay: ELISA, serially diluted hu-IPN002 with biotin-Tau 15-24
biotin-phospho Tau 15-24 = assay: ELISA, serially diluted hu-IPN002 with biotin-Tau 15-24 PHOSPHO
[9] = biological target: 383 amino acid recombinant tau (UniProt P10636); assay: peptide binding ELISA (A450), hu-IPN002 titrated; table under the curves

Sequence of 383 amino acid recombinant tau (P10636 other isoform, or with tags, fused parts or gaps limits assumed): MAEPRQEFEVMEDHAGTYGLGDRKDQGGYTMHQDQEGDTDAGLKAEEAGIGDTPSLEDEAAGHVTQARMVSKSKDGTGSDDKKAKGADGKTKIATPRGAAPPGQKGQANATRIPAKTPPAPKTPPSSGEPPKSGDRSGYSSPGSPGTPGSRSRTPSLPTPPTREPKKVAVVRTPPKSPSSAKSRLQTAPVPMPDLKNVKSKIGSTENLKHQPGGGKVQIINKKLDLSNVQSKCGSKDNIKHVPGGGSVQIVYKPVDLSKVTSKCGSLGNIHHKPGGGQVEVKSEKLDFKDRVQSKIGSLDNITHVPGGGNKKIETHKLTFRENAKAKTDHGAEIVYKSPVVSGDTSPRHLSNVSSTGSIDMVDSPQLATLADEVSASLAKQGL
Sequence of Peptide 2 (Tau amino acids 15-44) (peptide): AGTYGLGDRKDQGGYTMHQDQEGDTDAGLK

| IC50 (read off the curve) [1] [nM] | EC50 (read off the curve) [2] [nM] | Kd [2] [nM] | Kd [3] [nM] | Kd [4] [nM] | EC50 (read off the curve) [5] [nM] | EC50 (read off the curve) [6] [nM] | EC50 (read off the curve) [7] [nM] | Kd [8] [nM] | Kd (biotin-Tau 15-24) [nM] | Kd (biotin-phospho Tau 15-24) [nM] | Kd [9] [nM] | Substance |
| --- | --- | --- | --- | --- | --- | --- | --- | --- | --- | --- | --- | --- |
| 100 | – | – | – | – | – | – | – | – | – | – | – | Peptide 2 (Tau amino acids 15-44) |
| – | 0.3 | 0.288 | 0.107 | 0.114 | 0.1 | 0.1 | 0.3 | 0.283 | 0.754 | 0.768 | 0.288 | humanized variant of IPN002 (hu-IPN002) (antibody) |
